# Assay results reported in US20240294623A1 (SCHOLAR ROCK, published 2024).
# Positions count from the first letter of the chain named.
# B1: Ab4 (antibody, V domains shown)
# VH: EVQLVESGGGLVQPGGSLRLSCAASGFTFSSYSMNWVRQAPGKGLEWVSYISSSSSTIYYADSVKGRFTISRDNAKNSLYLQMNSLRAEDTAVYYCARGVLDYGDMLDPWGQGTLVTVSS
# VL: DIQMTQSPSSLSASVGDRVTITCQASQDITNYLNWYQQKPGKAPKLLIYDASNLETGVPSRFSGSGSGTDFTFTISSLQPEDIATYYCQQADNHPPWTFGGGTKVEIK
# B2: Ab22 (antibody, V domains shown)
# VH: B1 VH with S30G, Y32F, S52H, S54D, S55A
# VL: B1 VL
# B3: Ab24 (antibody, V domains shown)
# VH: B1 VH with G16R, Y32F, S33A, N35Y, S53P, S54D, S55A
# VL: B1 VL
# B4: Ab26 (antibody, V domains shown)
# VH: B1 VH with Y32F, N35D, S53P, S54D, S55A, S78T
# VL: B1 VL
# B5: Ab29 (antibody, V domains shown)
# VH: B1 VH with G16R, Y32F, S33A, S53P, S54D, S55A, D62G, A97V, G99A
# VL: B1 VL
# B6: Ab30 (antibody, V domains shown)
# VH: B1 VH with Y32F, N35D, S53P, S54D, S55A, V100T
# VL: B1 VL
# B7: Ab31 (antibody, V domains shown)
# VH: B1 VH with Y32F, N35D, S53P, S54D, S55A, S78T, G99A
# VL: B1 VL
# B8: Ab32 (antibody, V domains shown)
# VH: B1 VH with Y32F, S53P, S55A, S56D, S78T, L101W, Y103M
# VL: B1 VL
# B9: Ab33 (antibody, V domains shown)
# VH: B1 VH with Y32F, S53P, S55A, S56D, S78T, R98H
# VL: B1 VL
# B10: Ab3 (antibody, V domains shown)
# VH: EVQLLESGGGLVQPGGSLRLSCAASGFTFRNYAMSWVRQAPGKGLEWVSSISGSGGATYYADSVKGRFTISRDNSKNTLYLQMNSLRAEDTAVYYCARVSSGHWDFDYWGQGTLVTVSS
# VL: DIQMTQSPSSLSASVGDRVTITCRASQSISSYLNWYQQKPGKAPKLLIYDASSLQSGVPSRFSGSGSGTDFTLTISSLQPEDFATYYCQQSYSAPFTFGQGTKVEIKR
# B11: Ab21 (antibody, V domains shown)
# VH: B1 VH with Y32F, N35D, S53P, S54D, S55A
# VL: B1 VL
# B12: Ab23 (antibody, V domains shown)
# VH: B1 VH with Y32F, S53P, S55A, S56D, S78T
# VL: B1 VL
# B13: Ab25 (antibody, V domains shown)
# VH: B1 VH with S30G, Y32F, N35D, S53P, S54D, S55A
# VL: B1 VL
# B14: Ab27 (antibody, V domains shown)
# VH: B1 VH with S31F, S33A, S53P, S54D, S55A
# VL: B1 VL
# B15: Ab28 (antibody, V domains shown)
# VH: B1 VH with Y32F, N35D, S53P, S54D, S55A, A97V
# VL: B1 VL
# B16: Ab5 (antibody, V domains shown)
# VH: B1 VH with Y32F, N35D, S53P, S54D, S55A
# VL: B1 VL
# B17: Ab46 (hIgG4) (antibody, V domains shown)
# VH: B10 VH with R30A, N31D, S35T, S50A, G56A, Y60F, F106Y
# VL: DIQLTQSPSSLSASVGDRVTITCRASQSISSYLNWYQQKPGKAPKLLIYAASGLESGVPSRFSGSGSGTDFTLTISSLQPEDFATYYCQQTYGVPLTFGGGTKVEIK
# Biological target: T1, hLTBP1-proTGFβ1 (human, UniProt Q14766 347-1721; P01137 30-390, limits assumed)
# T1 construct: Large latent complex (LLC): proTGFβ1 dimer disulfide-linked to one presenting molecule; recombinant, purified, biotinylated in BLI/SPR; The same id is used for the complex made by transfected cells in the reporter assays; also called human LTBP1-proTGFβ1 complex; LTBP1-ProTGFb1
# T1 sequence (Q14766 347-1721 limits assumed, chain 1 of 2): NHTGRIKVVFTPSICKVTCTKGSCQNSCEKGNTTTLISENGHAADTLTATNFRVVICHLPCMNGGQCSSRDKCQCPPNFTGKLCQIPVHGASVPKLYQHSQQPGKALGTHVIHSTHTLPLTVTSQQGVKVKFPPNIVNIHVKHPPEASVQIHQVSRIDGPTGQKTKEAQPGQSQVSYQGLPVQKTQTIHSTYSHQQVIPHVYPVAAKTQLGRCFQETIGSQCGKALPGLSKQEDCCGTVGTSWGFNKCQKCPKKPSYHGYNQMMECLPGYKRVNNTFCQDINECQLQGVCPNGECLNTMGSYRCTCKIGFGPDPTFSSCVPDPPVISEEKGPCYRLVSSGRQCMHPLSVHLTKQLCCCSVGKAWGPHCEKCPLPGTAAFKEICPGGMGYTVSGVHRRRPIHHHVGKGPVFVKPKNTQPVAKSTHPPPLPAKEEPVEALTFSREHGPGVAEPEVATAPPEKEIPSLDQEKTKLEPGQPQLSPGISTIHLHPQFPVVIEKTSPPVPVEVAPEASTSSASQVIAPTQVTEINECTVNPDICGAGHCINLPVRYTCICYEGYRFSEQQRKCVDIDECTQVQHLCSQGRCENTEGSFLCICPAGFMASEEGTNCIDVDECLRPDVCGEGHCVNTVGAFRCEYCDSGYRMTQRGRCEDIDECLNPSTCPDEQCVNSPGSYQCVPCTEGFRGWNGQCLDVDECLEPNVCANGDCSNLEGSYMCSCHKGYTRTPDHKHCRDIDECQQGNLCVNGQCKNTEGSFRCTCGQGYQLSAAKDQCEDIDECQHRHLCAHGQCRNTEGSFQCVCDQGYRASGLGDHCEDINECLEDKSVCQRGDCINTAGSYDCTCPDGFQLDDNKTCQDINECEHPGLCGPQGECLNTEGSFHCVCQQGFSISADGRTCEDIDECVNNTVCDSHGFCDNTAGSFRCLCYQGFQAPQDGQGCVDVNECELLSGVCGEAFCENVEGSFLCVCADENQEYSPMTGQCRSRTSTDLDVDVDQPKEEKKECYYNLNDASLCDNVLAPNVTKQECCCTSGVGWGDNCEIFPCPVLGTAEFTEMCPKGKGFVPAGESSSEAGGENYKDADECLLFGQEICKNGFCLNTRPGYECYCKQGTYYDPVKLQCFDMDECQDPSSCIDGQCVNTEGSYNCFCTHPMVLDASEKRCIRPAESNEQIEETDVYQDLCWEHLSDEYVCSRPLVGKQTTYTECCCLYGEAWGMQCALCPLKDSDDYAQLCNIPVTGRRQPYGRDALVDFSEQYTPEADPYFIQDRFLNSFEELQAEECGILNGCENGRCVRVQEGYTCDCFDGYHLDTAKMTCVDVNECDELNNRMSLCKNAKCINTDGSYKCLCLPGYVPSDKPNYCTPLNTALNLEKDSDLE
# T1 sequence (P01137 30-390 limits assumed, chain 2 of 2): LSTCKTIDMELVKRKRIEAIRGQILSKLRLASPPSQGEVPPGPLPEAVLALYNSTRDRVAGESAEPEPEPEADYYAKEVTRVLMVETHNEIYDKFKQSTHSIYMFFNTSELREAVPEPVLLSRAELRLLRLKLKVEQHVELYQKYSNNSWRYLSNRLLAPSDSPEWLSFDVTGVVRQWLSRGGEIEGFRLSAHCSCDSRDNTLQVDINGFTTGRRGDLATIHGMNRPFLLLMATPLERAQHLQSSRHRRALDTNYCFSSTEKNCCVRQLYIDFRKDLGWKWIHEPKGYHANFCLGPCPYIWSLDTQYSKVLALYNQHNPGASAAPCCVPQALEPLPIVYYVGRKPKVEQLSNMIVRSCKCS
# Experiment: MSD-SET, hIgG4
# Procedure: (§1) For solution equilibrium titration-based binding assays, protein complexes that comprise one of the presenting molecules such as those shown above may be employed as antigen (presenting molecule-TGFβ1 complex, or an LLC). Test antibodies are allowed to form antigen-antibody complex in solution. Antigen-antibody reaction mixtures are incubated to allow an equilibrium to be reached; the amount of the antigen-antibody complex present in the assay reactions can be measured by suitable means well known in the art. As compared to BLI-based assays, SET-based assays are less affected by on/off rates of the antigen-antibody complex, allowing sensitive detection of very high affinity interactions.
row,Binder,Kd [nM]
1,B1,4.6
2,B2,0.05
3,B3,0.024
4,B4,0.028
5,B5,0.012
6,B6,0.031
7,B7,0.019
8,B8,0.037
9,B9,0.011
10,B10,13

# Biological target: T2, hLTBP3-proTGFβ1 (human, UniProt Q9NS15 44-1303; P01137 30-390, limits assumed)
# T2 construct: LLC as m1; Same id used for the cell-made complex in reporter assays; also called human LTBP3-proTGFβ1 complex; LTBP3-ProTGFb1
# T2 sequence (Q9NS15 44-1303 limits assumed, chain 1 of 2): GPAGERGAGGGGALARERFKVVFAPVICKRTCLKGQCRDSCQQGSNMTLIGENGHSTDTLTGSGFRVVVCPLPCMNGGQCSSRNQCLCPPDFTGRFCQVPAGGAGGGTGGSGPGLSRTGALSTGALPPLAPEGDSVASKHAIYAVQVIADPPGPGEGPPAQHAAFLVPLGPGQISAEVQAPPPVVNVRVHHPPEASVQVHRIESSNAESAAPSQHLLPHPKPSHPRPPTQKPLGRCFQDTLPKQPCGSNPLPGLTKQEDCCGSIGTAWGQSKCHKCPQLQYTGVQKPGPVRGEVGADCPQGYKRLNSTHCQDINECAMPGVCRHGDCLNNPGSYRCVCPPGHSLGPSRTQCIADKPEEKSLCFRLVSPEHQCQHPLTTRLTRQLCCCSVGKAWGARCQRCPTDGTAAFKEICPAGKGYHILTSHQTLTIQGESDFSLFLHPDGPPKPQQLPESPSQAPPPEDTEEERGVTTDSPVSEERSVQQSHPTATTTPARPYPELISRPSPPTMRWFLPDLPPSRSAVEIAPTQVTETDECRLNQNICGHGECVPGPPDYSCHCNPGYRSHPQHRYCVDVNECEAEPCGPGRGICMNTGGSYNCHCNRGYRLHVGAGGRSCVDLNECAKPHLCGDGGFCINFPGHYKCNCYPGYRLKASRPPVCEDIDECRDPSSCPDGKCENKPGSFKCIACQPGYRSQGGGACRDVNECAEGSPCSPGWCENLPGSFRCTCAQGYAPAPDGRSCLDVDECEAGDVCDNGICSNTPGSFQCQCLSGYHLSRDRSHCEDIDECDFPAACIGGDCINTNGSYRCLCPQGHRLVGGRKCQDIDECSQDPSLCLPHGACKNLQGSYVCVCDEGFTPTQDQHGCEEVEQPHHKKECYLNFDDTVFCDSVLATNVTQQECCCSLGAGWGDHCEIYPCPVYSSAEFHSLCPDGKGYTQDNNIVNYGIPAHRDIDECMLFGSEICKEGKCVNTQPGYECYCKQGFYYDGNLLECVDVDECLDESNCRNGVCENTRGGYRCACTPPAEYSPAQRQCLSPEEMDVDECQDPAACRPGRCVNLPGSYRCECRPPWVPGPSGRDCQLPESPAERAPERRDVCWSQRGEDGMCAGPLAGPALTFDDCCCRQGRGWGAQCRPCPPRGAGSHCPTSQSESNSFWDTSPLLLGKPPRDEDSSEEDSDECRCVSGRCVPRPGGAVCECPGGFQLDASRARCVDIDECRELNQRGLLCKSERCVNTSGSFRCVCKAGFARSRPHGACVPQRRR
# T2 sequence (P01137 30-390 limits assumed, chain 2 of 2): as the sequence (P01137 30-390 limits assumed, chain 2 of 2) above
# Experiment: MSD-SET, hIgG4
# Procedure: as §1
row,Binder,Kd [nM]
1,B1,5.5
2,B2,0.033
3,B3,0.021
4,B4,0.023
5,B5,0.011
6,B6,0.026
7,B7,0.014
8,B8,0.026
9,B9,0.007
10,B10,16.2

# Biological target: T3, hLRRC33-proTGFβ1 (human, UniProt Q86YC3 19-650; P01137 30-390, limits assumed)
# T3 construct: LLC as m1; Same id used for the cell-surface complex in reporter assays; also called human LRRC33-proTGFβ1 complex; LRRC33-ProTGFb1
# T3 sequence (Q86YC3 19-650 limits assumed, chain 1 of 2): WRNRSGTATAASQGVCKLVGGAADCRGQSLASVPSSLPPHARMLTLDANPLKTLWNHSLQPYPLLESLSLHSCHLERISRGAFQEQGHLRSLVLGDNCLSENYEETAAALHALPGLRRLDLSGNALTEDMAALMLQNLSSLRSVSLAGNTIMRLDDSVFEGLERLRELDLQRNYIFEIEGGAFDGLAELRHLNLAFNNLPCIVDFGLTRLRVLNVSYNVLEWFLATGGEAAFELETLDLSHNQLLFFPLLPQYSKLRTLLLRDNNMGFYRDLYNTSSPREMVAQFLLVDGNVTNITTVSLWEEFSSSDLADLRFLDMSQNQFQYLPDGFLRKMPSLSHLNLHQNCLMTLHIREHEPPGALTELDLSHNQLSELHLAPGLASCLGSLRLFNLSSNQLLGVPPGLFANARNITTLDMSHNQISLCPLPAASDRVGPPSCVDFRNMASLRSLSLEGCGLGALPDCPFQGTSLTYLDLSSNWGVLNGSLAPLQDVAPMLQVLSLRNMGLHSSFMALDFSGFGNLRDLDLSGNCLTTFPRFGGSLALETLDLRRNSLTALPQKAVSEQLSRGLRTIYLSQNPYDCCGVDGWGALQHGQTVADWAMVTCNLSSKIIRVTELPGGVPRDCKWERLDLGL
# T3 sequence (P01137 30-390 limits assumed, chain 2 of 2): as the sequence (P01137 30-390 limits assumed, chain 2 of 2) above
# Experiment: MSD-SET, hIgG4
# Procedure: as §1
row,Binder,Kd [nM]
1,B1,2.1
2,B2,0.2
3,B3,0.18
4,B4,0.13
5,B5,0.043
6,B6,0.14
7,B7,0.096
8,B8,0.087
9,B9,0.046
10,B10,35

# Biological target: T4, hGARP-proTGFβ1 (human, UniProt Q14392 18-627; P01137 30-390, limits assumed)
# T4 construct: LLC as m1; Same id used for the cell-surface complex in reporter assays; also called human GARP-proTGFβ1 complex; GARP-ProTGFb1
# T4 sequence (Q14392 18-627 limits assumed, chain 1 of 2): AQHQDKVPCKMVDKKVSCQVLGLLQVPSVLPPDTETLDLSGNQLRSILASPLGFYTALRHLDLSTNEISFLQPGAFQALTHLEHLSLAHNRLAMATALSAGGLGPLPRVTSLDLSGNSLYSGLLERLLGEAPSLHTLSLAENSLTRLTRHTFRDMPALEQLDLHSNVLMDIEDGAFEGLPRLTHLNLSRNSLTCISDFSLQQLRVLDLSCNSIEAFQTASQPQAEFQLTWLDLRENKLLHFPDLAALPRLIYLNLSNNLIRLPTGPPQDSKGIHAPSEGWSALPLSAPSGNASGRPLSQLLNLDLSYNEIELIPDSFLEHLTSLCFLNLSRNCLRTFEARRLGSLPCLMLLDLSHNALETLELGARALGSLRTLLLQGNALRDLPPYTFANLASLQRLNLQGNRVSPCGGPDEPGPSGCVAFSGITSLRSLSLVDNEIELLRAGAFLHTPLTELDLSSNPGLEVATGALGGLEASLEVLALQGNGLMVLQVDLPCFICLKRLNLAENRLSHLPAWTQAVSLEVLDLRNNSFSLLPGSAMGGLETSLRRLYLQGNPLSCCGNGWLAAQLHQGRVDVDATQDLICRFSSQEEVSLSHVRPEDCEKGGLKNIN
# T4 sequence (P01137 30-390 limits assumed, chain 2 of 2): as the sequence (P01137 30-390 limits assumed, chain 2 of 2) above
# Experiment: MSD-SET, hIgG4
# Procedure: as §1
row,Binder,Kd [nM]
1,B1,2.5
2,B2,0.027
3,B3,0.019
4,B4,0.014
5,B5,0.0055
6,B6,0.022
7,B7,0.019
8,B8,0.015
9,B9,0.0078
10,B10,28

# Biological target: T1, hLTBP1-proTGFβ1
# Experiment: BLI (Octet)
row,Binder,Kd [nM]
1,B11,0.225
2,B2,0.318
3,B12,0.417
4,B3,0.246
5,B13,0.217
6,B4,0.221
7,B14,0.178
8,B15,0.34
9,B5,0.189
10,B6,0.332
11,B7,0.236
12,B8,0.269
13,B9,0.179
14,B10,0.47

# Biological target: T2, hLTBP3-proTGFβ1
# Experiment: BLI (Octet)
row,Binder,Kd [nM]
1,B11,0.268
2,B2,0.329
3,B12,0.468
4,B3,0.198
5,B13,0.152
6,B4,0.173
7,B14,0.238
8,B15,0.316
9,B5,0.121
10,B6,0.261
11,B7,0.181
12,B8,0.215
13,B9,0.111
14,B10,0.459

# Biological target: T3, hLRRC33-proTGFβ1
# Experiment: BLI (Octet)
row,Binder,Kd [nM]
1,B11,0.455
2,B2,0.415
3,B12,0.455
4,B3,0.41
5,B13,0.409
6,B4,0.36
7,B14,0.299
8,B15,0.409
9,B5,0.302
10,B6,0.535
11,B7,0.41
12,B8,0.698
13,B9,0.339
14,B10,8.52

# Biological target: T4, hGARP-proTGFβ1
# Experiment: BLI (Octet)
row,Binder,Kd [nM]
1,B11,0.833
2,B2,0.974
3,B12,1.34
4,B3,0.665
5,B13,0.488
6,B4,0.625
7,B14,0.424
8,B15,0.797
9,B5,0.307
10,B6,0.833
11,B7,0.581
12,B8,0.496
13,B9,0.265
14,B10,17.3

# Biological target: T1, hLTBP1-proTGFβ1
# Experiment: cell-based or functional assay
row,Binder,"IC50, reporter cell assay [nM]"
1,B11,1.6
2,B1,5.2
3,B12,0.8
4,B13,6.1
5,B4,0.7
6,B5,0.5
7,B9,1.6
8,B16,1.3

# Biological target: T2, hLTBP3-proTGFβ1
# Experiment: cell-based or functional assay
row,Binder,"IC50, reporter cell assay [nM]"
1,B11,0.8
2,B1,5.6
3,B12,0.9
4,B13,0.51
5,B4,0.7
6,B5,0.8
7,B9,1.1
8,B16,1

# Biological target: T3, hLRRC33-proTGFβ1
# Experiment: cell-based or functional assay
row,Binder,"IC50, reporter cell assay [nM]"
1,B11,0.6
2,B1,3.5
3,B12,0.6
4,B13,0.7
5,B4,0.3
6,B5,0.5
7,B9,0.7
8,B16,0.6

# Biological target: T4, hGARP-proTGFβ1
# Experiment: cell-based or functional assay
row,Binder,"IC50, reporter cell assay [nM]"
1,B11,0.4
2,B1,0.8
3,B12,0.3
4,B13,0.4
5,B4,0.3
6,B5,0.3
7,B9,0.2
8,B16,0.1

# Biological target: endogenous LTBP-proTGFβ1 of human LN229 cells (human, UniProt P01137 30-390)
# Sequence (P01137 30-390): as the sequence (P01137 30-390 limits assumed, chain 2 of 2) above
# Experiment: cell-based or functional assay
row,Binder,mAb IC50 [nM]
1,B17,0.95

# Biological target: T1, hLTBP1-proTGFβ1
# Experiment: cell-based or functional assay
# Remark: another data set of the same source
row,Binder,"IC50, in vitro potency assay [nM]"
1,B10,24.3

# Biological target: T2, hLTBP3-proTGFβ1
# Experiment: cell-based or functional assay
# Remark: another data set of the same source
row,Binder,"IC50, in vitro potency assay [nM]"
1,B10,10.4

# Biological target: T3, hLRRC33-proTGFβ1
# Experiment: cell-based or functional assay
# Remark: another data set of the same source
row,Binder,"IC50, in vitro potency assay [nM]"
1,B10,0.858

# Biological target: T4, hGARP-proTGFβ1
# Experiment: cell-based or functional assay
# Remark: another data set of the same source
row,Binder,"IC50, in vitro potency assay [nM]"
1,B10,0.981
